# According to patent US20240425885:
# Columns and labels:
# Experiment in all cases: cleavage_in_vitro
# [1] = tested on: T1, OMNI-91 (metagenomic, unknown); conditions: TXTL; PAM NNGNRTNN
# T1 sequence: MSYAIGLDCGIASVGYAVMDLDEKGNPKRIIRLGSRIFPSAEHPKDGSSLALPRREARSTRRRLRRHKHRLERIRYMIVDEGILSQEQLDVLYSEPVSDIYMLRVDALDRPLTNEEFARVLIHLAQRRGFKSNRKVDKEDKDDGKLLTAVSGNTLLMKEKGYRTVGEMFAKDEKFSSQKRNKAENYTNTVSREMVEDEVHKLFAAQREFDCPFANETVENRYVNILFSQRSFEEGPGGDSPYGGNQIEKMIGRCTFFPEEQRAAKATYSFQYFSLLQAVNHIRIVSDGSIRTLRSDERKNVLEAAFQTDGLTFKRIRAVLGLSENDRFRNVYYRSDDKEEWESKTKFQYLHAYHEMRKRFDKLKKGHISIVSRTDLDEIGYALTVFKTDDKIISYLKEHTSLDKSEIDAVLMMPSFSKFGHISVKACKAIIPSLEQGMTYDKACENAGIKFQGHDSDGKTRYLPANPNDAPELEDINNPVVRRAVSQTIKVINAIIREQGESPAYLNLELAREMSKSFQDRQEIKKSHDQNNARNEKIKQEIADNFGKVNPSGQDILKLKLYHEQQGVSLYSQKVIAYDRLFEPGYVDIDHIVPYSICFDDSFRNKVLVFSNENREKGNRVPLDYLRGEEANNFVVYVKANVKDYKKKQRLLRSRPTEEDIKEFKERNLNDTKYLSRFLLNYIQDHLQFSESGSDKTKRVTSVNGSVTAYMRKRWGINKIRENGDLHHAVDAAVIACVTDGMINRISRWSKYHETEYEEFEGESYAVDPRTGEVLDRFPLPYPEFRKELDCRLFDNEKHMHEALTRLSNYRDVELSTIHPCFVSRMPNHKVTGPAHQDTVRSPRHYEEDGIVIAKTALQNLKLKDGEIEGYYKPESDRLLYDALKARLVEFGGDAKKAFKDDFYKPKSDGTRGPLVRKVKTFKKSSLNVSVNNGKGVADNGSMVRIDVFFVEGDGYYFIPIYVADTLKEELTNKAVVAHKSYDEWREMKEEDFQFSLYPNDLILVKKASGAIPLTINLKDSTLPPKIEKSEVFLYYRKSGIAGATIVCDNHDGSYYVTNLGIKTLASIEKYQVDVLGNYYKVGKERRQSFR
# [2] = tested on: T2, OMNI-131 (metagenomic, unknown); conditions: TXTL; PAM NRWRCCNN
# T2 sequence: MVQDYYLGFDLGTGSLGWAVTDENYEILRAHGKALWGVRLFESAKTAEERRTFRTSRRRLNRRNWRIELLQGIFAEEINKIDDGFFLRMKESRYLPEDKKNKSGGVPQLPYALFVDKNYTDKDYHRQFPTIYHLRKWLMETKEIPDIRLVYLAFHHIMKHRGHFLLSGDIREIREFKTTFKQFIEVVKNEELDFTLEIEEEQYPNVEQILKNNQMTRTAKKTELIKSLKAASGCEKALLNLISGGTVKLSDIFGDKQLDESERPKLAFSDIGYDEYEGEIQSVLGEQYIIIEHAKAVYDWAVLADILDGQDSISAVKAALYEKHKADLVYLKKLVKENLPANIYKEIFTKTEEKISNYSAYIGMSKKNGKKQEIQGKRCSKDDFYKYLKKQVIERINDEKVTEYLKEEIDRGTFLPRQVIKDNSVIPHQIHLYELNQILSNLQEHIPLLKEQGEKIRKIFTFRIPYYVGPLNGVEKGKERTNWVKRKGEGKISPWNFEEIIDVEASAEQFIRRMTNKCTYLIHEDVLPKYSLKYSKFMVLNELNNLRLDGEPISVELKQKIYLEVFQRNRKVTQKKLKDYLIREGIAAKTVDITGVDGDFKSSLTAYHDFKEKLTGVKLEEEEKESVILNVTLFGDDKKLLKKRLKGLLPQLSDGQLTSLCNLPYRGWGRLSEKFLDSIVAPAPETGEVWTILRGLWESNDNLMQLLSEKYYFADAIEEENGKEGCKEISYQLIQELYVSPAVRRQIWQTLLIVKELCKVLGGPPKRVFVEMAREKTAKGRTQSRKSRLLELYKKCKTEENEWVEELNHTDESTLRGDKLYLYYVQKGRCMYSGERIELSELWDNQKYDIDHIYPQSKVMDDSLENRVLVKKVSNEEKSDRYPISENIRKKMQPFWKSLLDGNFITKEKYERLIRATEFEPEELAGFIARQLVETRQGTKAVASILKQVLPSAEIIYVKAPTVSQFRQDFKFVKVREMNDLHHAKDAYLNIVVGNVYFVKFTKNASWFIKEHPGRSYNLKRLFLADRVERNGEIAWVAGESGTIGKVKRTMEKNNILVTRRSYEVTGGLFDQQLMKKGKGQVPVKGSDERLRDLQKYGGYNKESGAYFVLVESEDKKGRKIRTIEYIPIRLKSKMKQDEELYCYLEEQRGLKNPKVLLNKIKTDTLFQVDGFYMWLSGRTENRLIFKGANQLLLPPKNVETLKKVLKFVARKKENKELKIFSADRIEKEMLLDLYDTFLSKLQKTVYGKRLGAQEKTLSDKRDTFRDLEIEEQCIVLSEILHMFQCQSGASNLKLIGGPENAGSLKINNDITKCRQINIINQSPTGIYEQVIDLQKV
# [3] = tested on: T3, OMNI-129 (metagenomic, unknown); conditions: TXTL; PAM NNNNGAAA
# T3 sequence: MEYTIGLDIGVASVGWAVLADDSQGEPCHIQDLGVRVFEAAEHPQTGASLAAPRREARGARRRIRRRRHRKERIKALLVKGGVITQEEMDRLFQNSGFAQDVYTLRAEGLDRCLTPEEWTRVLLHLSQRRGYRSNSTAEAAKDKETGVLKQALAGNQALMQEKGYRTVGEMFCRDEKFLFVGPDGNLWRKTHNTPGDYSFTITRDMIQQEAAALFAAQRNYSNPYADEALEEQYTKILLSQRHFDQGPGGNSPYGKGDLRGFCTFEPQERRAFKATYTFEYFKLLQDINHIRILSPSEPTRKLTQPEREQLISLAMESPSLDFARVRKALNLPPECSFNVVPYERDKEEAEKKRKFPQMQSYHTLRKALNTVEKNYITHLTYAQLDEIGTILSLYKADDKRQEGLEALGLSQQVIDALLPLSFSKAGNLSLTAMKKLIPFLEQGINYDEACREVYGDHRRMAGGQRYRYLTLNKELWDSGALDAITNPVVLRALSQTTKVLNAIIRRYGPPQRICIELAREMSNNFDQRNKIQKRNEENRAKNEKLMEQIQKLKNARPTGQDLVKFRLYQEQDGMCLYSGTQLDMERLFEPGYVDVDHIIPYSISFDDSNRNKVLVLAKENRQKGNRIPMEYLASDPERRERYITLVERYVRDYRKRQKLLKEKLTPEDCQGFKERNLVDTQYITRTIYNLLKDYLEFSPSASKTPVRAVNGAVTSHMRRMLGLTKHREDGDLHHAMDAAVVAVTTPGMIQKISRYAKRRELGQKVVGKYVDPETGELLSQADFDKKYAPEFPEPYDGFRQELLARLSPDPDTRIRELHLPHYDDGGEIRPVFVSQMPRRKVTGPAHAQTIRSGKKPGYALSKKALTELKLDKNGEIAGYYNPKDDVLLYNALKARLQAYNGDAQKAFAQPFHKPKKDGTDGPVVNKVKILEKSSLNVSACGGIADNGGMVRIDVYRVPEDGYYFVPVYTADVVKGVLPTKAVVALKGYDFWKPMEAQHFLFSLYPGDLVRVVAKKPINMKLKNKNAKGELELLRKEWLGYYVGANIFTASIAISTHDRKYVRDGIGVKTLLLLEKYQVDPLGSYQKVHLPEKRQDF
# [4] = tested on: T4, OMNI-128 (metagenomic, unknown); conditions: TXTL; PAM NRYHCCNN
# T4 sequence: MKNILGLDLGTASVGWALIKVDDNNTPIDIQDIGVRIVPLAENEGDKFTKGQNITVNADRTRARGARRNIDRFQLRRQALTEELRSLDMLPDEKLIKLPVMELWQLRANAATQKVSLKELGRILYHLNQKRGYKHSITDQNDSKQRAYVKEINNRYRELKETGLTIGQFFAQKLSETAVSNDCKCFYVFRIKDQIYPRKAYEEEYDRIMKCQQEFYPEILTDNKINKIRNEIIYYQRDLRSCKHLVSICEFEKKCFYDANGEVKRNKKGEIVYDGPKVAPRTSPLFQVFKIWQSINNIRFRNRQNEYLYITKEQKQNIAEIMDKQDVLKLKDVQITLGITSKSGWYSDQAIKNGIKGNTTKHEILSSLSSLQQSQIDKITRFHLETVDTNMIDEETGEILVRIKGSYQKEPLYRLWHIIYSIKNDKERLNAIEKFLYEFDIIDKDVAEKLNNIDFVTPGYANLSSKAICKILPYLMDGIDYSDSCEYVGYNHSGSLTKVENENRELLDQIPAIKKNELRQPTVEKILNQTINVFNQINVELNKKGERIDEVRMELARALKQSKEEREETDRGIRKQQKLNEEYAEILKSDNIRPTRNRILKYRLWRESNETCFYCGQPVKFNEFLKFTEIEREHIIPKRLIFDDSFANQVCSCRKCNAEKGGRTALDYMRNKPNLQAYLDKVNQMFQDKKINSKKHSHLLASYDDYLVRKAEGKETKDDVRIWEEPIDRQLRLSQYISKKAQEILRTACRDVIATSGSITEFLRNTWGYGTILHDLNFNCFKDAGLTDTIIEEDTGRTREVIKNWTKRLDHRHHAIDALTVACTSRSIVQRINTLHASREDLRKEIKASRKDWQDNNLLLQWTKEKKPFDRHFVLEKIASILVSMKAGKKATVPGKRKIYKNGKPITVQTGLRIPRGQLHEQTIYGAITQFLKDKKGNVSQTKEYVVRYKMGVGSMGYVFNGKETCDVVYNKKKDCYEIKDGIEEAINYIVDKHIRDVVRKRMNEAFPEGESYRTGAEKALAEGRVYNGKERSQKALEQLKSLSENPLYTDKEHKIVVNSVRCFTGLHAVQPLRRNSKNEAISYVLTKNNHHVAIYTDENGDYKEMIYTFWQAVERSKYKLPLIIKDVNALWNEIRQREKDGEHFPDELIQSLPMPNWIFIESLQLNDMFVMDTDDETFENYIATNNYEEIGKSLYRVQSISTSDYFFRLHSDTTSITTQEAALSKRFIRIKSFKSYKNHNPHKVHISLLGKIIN
sequence,measurement,setting,value
GGAAGAGCAGAGCCUUGGUCUCGUUGUAGUCCCCUCGUAGUGAAAACUAUCAGGUCACUACAAUAAAGUAGAACACUGAAAAGCUCUGACGGCCCACUUUCCGUGGGUCGUCAUCUUUUUU / GGAAGAGCAGAGCCTTGGTCTCNNNNNNNN / NNNNNNNNGAGACCAAGGCTCTGCTCTTCC [T2 sgRNA 2 V1 ; T2 protospacer + 8N PAM library (pbPOS T2)],activity (1-depletion score),[1],0.96
GGAAGAGCAGAGCCUUGGUCUCGUUUGAGAAUGAUGUAAGAAAUUACAUCAUAAGUUCAAAUAACGAUUUAUCGAAGACGCCGUUUAUAACGGCCCACAGUGAGUGGAAAGAAAGCUGUUGCUCAUAGGAGCAGCAGUUUUUU / GGAAGAGCAGAGCCTTGGTCTCNNNNNNNN / NNNNNNNNGAGACCAAGGCTCTGCTCTTCC [T2 sgRNA 31 V1 ; T2 protospacer + 8N PAM library (pbPOS T2)],activity (1-depletion score),[2],0.95
GGAAGAGCAGAGCCUUGGUCUCGUUGUAGUUCCCUAAUGUUGAAAGACAUUAGGUUACUGCGAUCAGGCAGUAUGCCUCAGAGCUCCGCCCUAACCACGUUUUGUGGUUGGGGCGUCUUUGCAUUUUUU / GGAAGAGCAGAGCCTTGGTCTCNNNNNNNN / NNNNNNNNGAGACCAAGGCTCTGCTCTTCC [T2 sgRNA 30 V1 ; T2 protospacer + 8N PAM library (pbPOS T2)],activity (1-depletion score),[3],0.95
GGAAGAGCAGAGCCUUGGUCUCGUUGUGAUUUGCUGAAGAAAUUCAGCAAAUCACAAUAAGGAUUAUUCCGUUGUGAAAACAUUCAAGGCGGCGCAAGUCGCCUUUUUU / GGAAGAGCAGAGCCTTGGTCTCNNNNNNNN / NNNNNNNNGAGACCAAGGCTCTGCTCTTCC [T2 sgRNA 29 V1 ; T2 protospacer + 8N PAM library (pbPOS T2)],activity (1-depletion score),[4],0.87
